Test results from patent US8053186.

Key:
[1] = biological target: All1/Af4 fusion protein (endogenous, SEMK2 cells with t(4;11)), Q03164
[2] = biological target: All1/Af9 fusion protein (endogenous, PER377 cells with t(9;11)), Q03164
All1/Af9 fusion protein (endogenous, PER377 cells with t(9;11)), Q03164, sequence (Q03164 other isoform, or with tags, fused parts or gaps): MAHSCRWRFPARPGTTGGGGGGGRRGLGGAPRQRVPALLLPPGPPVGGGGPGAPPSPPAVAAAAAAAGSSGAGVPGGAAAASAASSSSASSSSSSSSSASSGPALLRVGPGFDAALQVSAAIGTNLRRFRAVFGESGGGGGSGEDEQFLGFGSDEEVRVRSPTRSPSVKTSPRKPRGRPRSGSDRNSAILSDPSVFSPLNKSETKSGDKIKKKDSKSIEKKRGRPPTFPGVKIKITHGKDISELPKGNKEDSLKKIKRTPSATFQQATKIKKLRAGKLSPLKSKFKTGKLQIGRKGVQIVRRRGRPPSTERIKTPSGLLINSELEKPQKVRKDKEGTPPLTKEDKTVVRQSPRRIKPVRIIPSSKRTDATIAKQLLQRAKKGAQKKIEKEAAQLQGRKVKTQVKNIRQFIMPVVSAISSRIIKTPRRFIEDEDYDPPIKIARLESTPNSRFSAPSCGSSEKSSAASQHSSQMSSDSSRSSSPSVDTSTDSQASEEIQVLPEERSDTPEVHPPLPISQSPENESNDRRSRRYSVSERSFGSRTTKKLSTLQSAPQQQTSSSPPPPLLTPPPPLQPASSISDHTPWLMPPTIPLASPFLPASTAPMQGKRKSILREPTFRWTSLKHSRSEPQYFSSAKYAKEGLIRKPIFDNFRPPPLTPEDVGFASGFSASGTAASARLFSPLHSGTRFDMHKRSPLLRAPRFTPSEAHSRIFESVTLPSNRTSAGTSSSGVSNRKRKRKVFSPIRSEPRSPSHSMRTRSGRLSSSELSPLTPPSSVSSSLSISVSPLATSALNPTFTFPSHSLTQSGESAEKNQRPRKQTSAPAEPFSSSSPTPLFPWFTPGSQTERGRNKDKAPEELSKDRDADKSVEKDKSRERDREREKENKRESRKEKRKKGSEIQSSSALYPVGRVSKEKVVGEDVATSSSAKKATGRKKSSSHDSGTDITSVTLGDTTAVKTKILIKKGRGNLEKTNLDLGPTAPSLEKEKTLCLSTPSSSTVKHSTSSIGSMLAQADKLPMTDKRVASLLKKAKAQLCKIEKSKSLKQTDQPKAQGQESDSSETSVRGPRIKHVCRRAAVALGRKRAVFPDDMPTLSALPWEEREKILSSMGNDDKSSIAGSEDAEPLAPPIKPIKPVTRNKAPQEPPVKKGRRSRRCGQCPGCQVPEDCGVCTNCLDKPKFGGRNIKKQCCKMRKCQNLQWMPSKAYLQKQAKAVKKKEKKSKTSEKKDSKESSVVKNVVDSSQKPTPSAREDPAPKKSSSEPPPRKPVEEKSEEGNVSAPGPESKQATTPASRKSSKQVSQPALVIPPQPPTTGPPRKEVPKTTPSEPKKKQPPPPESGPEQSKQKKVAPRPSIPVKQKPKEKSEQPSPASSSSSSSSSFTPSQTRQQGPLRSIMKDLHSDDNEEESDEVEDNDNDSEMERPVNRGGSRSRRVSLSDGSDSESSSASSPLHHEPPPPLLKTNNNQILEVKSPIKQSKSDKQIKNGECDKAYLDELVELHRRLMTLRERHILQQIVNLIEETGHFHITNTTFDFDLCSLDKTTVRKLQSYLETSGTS

All1/Af4 fusion protein (endogenous, SEMK2 cells with t(4;11)), Q03164, sequence (Q03164 other isoform, or with tags, fused parts or gaps): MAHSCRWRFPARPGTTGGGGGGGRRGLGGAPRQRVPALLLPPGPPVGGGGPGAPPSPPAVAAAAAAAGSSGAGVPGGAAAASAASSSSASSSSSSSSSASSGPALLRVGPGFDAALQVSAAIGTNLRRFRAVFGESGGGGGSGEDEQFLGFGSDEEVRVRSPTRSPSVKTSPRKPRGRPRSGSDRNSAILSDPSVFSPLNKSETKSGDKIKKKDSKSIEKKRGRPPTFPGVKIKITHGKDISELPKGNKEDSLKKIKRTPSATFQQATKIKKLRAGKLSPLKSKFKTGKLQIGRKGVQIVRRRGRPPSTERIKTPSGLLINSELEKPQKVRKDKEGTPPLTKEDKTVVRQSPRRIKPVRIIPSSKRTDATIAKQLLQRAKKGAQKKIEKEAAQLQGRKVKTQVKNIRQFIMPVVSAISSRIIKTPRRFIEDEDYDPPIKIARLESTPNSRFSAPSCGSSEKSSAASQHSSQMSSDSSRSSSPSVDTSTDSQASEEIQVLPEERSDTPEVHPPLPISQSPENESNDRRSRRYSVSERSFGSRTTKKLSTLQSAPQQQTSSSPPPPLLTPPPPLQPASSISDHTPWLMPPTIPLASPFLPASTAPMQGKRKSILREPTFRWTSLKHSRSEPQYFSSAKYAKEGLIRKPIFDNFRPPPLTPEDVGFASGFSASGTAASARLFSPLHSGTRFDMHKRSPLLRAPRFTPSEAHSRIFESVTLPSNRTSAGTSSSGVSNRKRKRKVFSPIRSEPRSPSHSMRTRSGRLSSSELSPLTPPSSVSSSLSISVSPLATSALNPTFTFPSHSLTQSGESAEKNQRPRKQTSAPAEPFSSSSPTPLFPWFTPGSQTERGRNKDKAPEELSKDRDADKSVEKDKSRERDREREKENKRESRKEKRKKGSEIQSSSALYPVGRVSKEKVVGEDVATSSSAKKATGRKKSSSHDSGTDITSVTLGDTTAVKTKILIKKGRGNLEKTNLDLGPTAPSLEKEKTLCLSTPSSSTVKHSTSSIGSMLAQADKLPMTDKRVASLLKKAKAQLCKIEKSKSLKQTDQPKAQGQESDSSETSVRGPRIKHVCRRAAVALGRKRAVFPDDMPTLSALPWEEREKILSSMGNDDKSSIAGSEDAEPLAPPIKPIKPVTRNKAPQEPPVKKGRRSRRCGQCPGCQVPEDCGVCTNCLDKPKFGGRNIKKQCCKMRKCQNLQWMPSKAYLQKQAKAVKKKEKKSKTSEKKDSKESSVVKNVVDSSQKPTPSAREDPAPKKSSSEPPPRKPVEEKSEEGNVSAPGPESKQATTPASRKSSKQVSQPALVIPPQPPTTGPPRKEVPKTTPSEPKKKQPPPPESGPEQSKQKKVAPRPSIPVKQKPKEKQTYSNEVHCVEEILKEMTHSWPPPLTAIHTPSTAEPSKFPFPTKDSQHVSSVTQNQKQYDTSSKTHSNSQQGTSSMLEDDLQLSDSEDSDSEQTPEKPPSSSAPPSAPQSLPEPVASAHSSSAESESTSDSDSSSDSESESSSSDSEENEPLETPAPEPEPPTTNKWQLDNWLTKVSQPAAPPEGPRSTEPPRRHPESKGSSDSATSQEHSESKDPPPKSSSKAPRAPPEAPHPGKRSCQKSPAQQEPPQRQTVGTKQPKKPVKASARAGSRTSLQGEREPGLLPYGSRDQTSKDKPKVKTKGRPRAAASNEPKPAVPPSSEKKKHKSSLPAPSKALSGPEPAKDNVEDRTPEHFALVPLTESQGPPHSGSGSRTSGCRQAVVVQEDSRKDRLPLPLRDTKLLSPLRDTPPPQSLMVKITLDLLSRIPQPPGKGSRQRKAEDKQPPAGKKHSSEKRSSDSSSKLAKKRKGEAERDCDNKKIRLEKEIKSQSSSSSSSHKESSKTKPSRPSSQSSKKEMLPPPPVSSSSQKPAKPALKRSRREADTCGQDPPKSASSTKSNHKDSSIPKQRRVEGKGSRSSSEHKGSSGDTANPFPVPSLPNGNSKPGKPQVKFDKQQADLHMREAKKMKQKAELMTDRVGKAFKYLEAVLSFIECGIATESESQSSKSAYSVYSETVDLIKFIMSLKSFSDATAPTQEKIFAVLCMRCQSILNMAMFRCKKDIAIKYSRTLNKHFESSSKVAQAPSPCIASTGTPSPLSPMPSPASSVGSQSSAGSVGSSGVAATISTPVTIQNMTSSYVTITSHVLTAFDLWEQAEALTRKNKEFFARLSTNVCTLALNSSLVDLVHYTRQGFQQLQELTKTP

B1: Drosha (endogenous, immunoprecipitated from SEMK2 or PER377 nuclear extracts) (protein)
chain: MMQGNTCHRMSFHPGRGCPRGRGGHGARPSAPSFRPQNLRLLHPQQPPVQYQYEPPSAPSTTFSNSPAPNFLPPRPDFVPFPPPMPPSAQGPLPPCPIRPPFPNHQMRHPFPVPPCFPPMPPPMPCPNNPPVPGAPPGQGTFPFMMPPPSMPHPPPPPVMPQQVNYQYPPGYSHHNFPPPSFNSFQNNPSSFLPSANNSSSPHFRHLPPYPLPKAPSERRSPERLKHYDDHRHRDHSHGRGERHRSLDRRERGRSPDRRRQDSRYRSDYDRGRTPSRHRSYERSRERERERHRHRDNRRSPSLERSYKKEYKRSGRSYGLSVVPEPAGCTPELPGEIIKNTDSWAPPLEIVNHRSPSREKKRARWEEEKDRWSDNQSSGKDKNYTSIKEKEPEETMPDKNEEEEEELLKPVWIRCTHSENYYSSDPMDQVGDSTVVGTSRLRDLYDKFEEELGSRQEKAKAARPPWEPPKTKLDEDLESSSESECESDEDSTCSSSSDSEVFDVIAEIKRKKAHPDRLHDELWYNDPGQMNDGPLCKCSAKARRTGIRHSIYPGEEAIKPCRPMTNNAGRLFHYRITVSPPTNFLTDRPTVIEYDDHEYIFEGFSMFAHAPLTNIPLCKVIRFNIDYTIHFIEEMMPENFCVKGLELFSLFLFRDILELYDWNLKGPLFEDSPPCCPRFHFMPRFVRFLPDGGKEVLSMHQILLYLLRCSKALVPEEEIANMLQWEELEWQKYAEECKGMIVTNPGTKPSSVRIDQLDREQFNPDVITFPIIVHFGIRPAQLSYAGDPQYQKLWKSYVKLRHLLANSPKVKQTDKQKLAQREEALQKIRQKNTMRREVTVELSSQGFWKTGIRSDVCQHAMMLPVLTHHIRYHQCLMHLDKLIGYTFQDRCLLQLAMTHPSHHLNFGMNPDHARNSLSNCGIRQPKYGDRKVHHMHMRKKGINTLINIMSRLGQDDPTPSRINHNERLEFLGDAVVEFLTSVHLYYLFPSLEEGGLATYRTAIVQNQHLAMLAKKLELDRFMLYAHGPDLCRESDLRHAMANCFEALIGAVYLEGSLEEAKQLFGRLLFNDPDLREVWLNYPLHPLQLQEPNTDRQLIETSPVLQKLTEFEEAIGVIFTHVRLLARAFTLRTVGFNHLTLGHNQRMEFLGDSIMQLVATEYLFIHFPDHHEGHLTLLRSSLVNNRTQAKVAEELGMQEYAITNDKTKRPVALRTKTLADLLESFIAALYIDKDLEYVHTFMNVCFFPRLKEFILNQDWNDPKSQLQQCCLTLRTEGKEPDIPLYKTLQTVGPSHARTYTVAVYFKGERIGCGKGPSIQQAEMGAAMDALEKYNFPQMAHQKRFIERKYRQELKEMRWEREHQEREPDETEDIKK
in vitro cleavage of miR-191 and miR-155 probes by immuno-purified Drosha [1]: Drosha containing All1/Af4 exhibited the strongest processing activity
in vitro cleavage of miR-191 and miR-155 probes by immuno-purified Drosha [2]: Drosha containing All1/Af9 had less processing activity, similar to that of the Drosha:FLAG preparation
